Data set [1] deals with T1, DNA ligase IIIα (LIGIIIα) (UniProt P49916-3 1-922).
T1 sequence: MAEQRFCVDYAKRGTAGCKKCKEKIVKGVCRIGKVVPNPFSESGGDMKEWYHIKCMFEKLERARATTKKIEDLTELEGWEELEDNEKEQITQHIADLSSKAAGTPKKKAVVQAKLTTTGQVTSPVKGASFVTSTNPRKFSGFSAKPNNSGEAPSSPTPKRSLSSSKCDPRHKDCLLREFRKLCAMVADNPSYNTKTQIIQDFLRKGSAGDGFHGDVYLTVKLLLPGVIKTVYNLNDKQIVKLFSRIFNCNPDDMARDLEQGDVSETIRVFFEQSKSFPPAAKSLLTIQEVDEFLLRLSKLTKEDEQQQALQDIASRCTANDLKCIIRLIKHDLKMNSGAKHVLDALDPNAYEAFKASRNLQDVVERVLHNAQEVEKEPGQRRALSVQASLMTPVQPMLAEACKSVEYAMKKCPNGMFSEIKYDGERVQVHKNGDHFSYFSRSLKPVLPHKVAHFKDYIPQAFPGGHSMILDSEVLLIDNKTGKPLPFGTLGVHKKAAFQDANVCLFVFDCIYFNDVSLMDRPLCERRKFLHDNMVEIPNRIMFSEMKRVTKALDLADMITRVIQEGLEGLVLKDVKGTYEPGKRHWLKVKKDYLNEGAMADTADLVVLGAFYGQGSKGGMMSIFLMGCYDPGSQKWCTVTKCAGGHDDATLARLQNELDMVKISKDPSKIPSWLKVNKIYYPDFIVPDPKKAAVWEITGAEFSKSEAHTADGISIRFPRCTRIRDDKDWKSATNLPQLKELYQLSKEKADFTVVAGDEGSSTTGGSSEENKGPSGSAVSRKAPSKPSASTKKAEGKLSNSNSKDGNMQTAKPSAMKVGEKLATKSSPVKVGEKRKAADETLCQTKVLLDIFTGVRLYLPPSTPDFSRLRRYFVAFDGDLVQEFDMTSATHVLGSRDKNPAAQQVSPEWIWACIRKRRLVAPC
In words: BLI; range given jointly for polβ, LIG1 and LIGIIIα; individual value only in figure; BLI (Octet QKe), 20 °C: polβ, APE1, LIGIIIα in 20 mM Hepes pH 7.4, 200 mM NaCl, 0.5% BSA, 0.05% Tween 20; LIG1 in 50 mM Tris-HCl pH 7.5, 100 mM KCl, 1 mM DTT; no Mg2+ listed. The note with it: protein: recombinant; tags: His; label: 3'-biotin on S2; 1-nt gap opposite template C; strands 1 and 2 pair with strand 3; blunt outer ends. (In BLI a coated tip is dipped into the sample, and binding shifts an interference pattern.)

For data set [2], the target named is T2, DNA polymerase beta (polβ) (UniProt P06746 1-335). In words: BLI; range given jointly for polβ, LIG1 and LIGIIIα; individual value only in figure; BLI (Octet QKe), 20 °C: polβ, APE1, LIGIIIα in 20 mM Hepes pH 7.4, 200 mM NaCl, 0.5% BSA, 0.05% Tween 20; LIG1 in 50 mM Tris-HCl pH 7.5, 100 mM KCl, 1 mM DTT; n.
The target in data set [3] is apurinic/apyrimidinic endonuclease 1 (APE1) (UniProt P27695 1-318). In words: BLI; BLI (Octet QKe), 20 °C: polβ, APE1, LIGIIIα in 20 mM Hepes pH 7.4, 200 mM NaCl, 0.5% BSA, 0.05% Tween 20; LIG1 in 50 mM Tris-HCl pH 7.5, 100 mM KCl, 1 mM DTT; no Mg2+ listed. The following applies: protein: recombinant, tags: His, strands 1 and 2 pair with strand 3, blunt outer ends.
For data set [4], the target named is T3, DNA ligase 1 (LIG1) (UniProt P18858 1-919). In words: BLI; range given jointly for polβ, LIG1 and LIGIIIα; LIG1 buffer; BLI (Octet QKe), 20 °C: polβ, APE1, LIGIIIα in 20 mM Hepes pH 7.4, 200 mM NaCl, 0.5% BSA, 0.05% Tween 20; LIG1 in 50 mM Tris-HCl pH 7.5, 100 mM KCl, 1 mM DTT; no Mg2+ listed. The note with it: protein: recombinant; tags: His; label: 3'-biotin on S2; 1-nt gap opposite template C; strands 1 and 2 pair with strand 3; blunt outer ends.

Data set [5] concerns the target T3, DNA ligase 1 (LIG1). In words: BLI; LIG1 buffer; BLI (Octet QKe), 20 °C: polβ, APE1, LIGIIIα in 20 mM Hepes pH 7.4, 200 mM NaCl, 0.5% BSA, 0.05% Tween 20; LIG1 in 50 mM Tris-HCl pH 7.5, 100 mM KCl, 1 mM DTT; no Mg2+ listed. The following applies: protein: recombinant; tags: His; label: 3'-biotin on strand 2; nicked duplex; strands 1 and 2 pair with strand 3; blunt outer ends.

The target in data set [6] is T2, DNA polymerase beta (polβ). In words: BLI; BLI (Octet QKe), 20 °C: polβ, APE1, LIGIIIα in 20 mM Hepes pH 7.4, 200 mM NaCl, 0.5% BSA, 0.05% Tween 20; LIG1 in 50 mM Tris-HCl pH 7.5, 100 mM KCl, 1 mM DTT; n.
Data set [7] deals with T1, DNA ligase IIIα (LIGIIIα). In words: BLI; BLI (Octet QKe), 20 °C: polβ, APE1, LIGIIIα in 20 mM Hepes pH 7.4, 200 mM NaCl, 0.5% BSA, 0.05% Tween 20; LIG1 in 50 mM Tris-HCl pH 7.5, 100 mM KCl, 1 mM DTT; no Mg2+ listed. The following applies: protein: recombinant; tags: His; label: 3'-biotin on strand 2; nicked duplex; strands 1 and 2 pair with strand 3; blunt outer ends.

In general, Kd refers to the equilibrium constant for the complex coming apart.

B1: one-nucleotide gap DNA (template C) (dsDNA)
DNA 1: CATGGGCGGCATGAACC
DNA 2: GAGGCCCATCCTCACC
DNA 3: GGTGAGGATGGGCCTCCGGTTCATGCCGCCCATG
modifications: 5'-phosphate on S2 at the gap; 3'-OH on S1
For B1, the Kd in data set [1] was ~4.9 nM; in data set [2] it was ~4.9 nM; in data set [3] (label: 3'-biotin on S2, 1-nt gap opposite template C) it was 70 nM; with DNA ligase 1 (LIG1) [4], ~4.9 nM.

B2: nick DNA (3'-dG:C) (dsDNA)
DNA 1: CATGGGCGGCATGAACCG
DNA 2: GAGGCCCATCCTCACC
DNA 3: GGTGAGGATGGGCCTCCGGTTCATGCCGCCCATG
modifications: 5'-phosphate on strand 2 at the nick; 3'-OH on strand 1
Regarding B2, the Kd is 3 nM in the data set with DNA ligase 1 (LIG1) [5]; ~20 nM in data set [6]; ~7 nM in data set [7]; 200 nM in data set [3] (label: 3'-biotin on strand 2, nicked duplex).
